Assay results reported in US20200339692A1 (JIANGSU HENGRUI MEDICINE, published 2020).
Positions count from the first letter of the chain named. Names and notes keep the numbering of the source.

B1: H6L11 (antibody, human IgG1, kappa, V domains shown)
VH: QVQLQESGPGLVKPSQTLSLTCTVSGGSISNDYWTWIRQHPGKGLEYIGFISRAGSTYNTPSLKGRVTISRDTSKNQFSLKLSSVTAADTAVYYCARSGGWLAPFDYWGRGTLVTVSS
VL: DIVMTQSPDSLAVSLGERATINCKSSQSLFYHSNQKHSLAWYQQKPGQPPKLLIYGASTRESGVPDRFSGSGSGTDFTLTISSLQAEDVAVYYCQQYYGYPYTFGGGTKVEIKR
notes: also called 9-2 H6 and 9-2 L11
B2: H5L11 (antibody, human IgG1, kappa, V domains shown)
VH: QVQLQESGPGLVKPSQTLSLTCTVSGGSISDGSAYWSWIRQHPGKGLEYIGFISRAGSTYNTPSLKGRVTISRDTSKNQFSLKLSSVTAADTAVYYCARSGGWLAPFDYWGRGTLVTVSS
VL: B1 VL
notes: from the HRP00049 mutant library; also called 9-2 H5 and 9-2 L11
B3: H12L64 (antibody, human IgG1, kappa, V domains shown)
VH: QVQLVQSGAEVKKPGASVKVSCKASGYTFTSYWMHWVRQAPGQGLEWMGRITPSSGFAMYNEKFKNRVTMTRDTSTSTVYMELSSLRSEDTAVYYCARGGSSYDYFDYWGQGTTVTVSS
VL: DIVLTQSPASLAVSPGQRATITCRASESVSIHGTHLMHWYQQKPGQPPKLLIYVASYAASGVPARFSGSGSGTDFTLTINPVEAEDTANYYCQQSFEDPLTFGQGTKLEIKR
notes: from the HRP00052 mutant library; also called 24D5 H12 and 24D5 L64
B4: H18L61 (antibody, human IgG1, kappa, V domains shown)
VH: B3 VH with T52S, F57M, M59V
VL: B3 VL with V54A, Y57N, A58L, A59E
notes: also called 24D5 H18 and 24D5 L61
B5: HRP00052-IgG1 (antibody)
heavy: not shown
light: DIVLTQSPASLAVSPGQRATITCRASESVSIHGTHLMHWYQQKPGQPPKLLIYAASNLESGVPARFSGSGSGTDFTLTINPVEAEDTANYYCQQSFEDPLTFGQGTKLEIKRTVAAPSVFIFPPSDEQLKSGTASVVCLLNNFYPREAKVQWKVDNALQSGNSQESVTEQDSKDSTYSLSSTLTLSKADYEKHKVYACEVTHQGLSSPVTKSFNRGEC
B6: HRP00052: 24D5(GF)IgG4(AA)(S228P) (antibody)
heavy: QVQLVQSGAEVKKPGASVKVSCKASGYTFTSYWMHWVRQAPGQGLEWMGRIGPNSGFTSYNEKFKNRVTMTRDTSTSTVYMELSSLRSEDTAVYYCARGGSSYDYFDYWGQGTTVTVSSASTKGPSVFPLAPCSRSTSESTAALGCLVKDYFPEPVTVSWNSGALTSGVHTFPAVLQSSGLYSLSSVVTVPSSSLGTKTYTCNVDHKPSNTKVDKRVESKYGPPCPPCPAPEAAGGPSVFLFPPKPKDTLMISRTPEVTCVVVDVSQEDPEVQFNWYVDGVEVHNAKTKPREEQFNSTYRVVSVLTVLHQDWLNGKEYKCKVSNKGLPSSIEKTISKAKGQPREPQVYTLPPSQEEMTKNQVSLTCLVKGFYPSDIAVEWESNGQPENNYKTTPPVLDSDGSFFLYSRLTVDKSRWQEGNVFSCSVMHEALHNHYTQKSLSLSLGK
light: B5 light
notes: Parent antibody from WO2017084495A1
B7: H21L68 (antibody, human IgG1, kappa, V domains shown)
VH: B3 VH with S31D, Y32K, H35M
VL: B3 VL with Y57N, A58V, A59W
notes: also called 24D5 H21 and 24D5 L68
B8: H7L11 (antibody, human IgG1, kappa, V domains shown)
VH: B1 VH with F50M, R53V, N59H
VL: B1 VL
notes: also called 9-2 H7 and 9-2 L11

Target: mouse PD-L1 (ligand blocking test) (mouse, UniProt Q9EP73 19-238, limits assumed)
Sequence (Q9EP73 19-238 limits assumed): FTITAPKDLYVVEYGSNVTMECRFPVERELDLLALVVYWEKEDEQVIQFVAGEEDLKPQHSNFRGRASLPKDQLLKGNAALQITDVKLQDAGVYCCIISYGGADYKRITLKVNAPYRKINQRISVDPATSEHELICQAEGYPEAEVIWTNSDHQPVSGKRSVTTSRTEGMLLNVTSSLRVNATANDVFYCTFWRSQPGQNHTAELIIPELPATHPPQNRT
Assay: blocking of mouse PD-L1/PD-1 binding, PD-L1 5 ug/ml; competitor PD-1

Row | IC50 [ng/mL] | Binder
1 | 1.23 | B1
2 | 0.927 | B2

Target: T1, human PD-L1 (ligand blocking test) (human, UniProt Q9NZQ7 19-238, limits assumed)
T1 sequence (Q9NZQ7 19-238 limits assumed): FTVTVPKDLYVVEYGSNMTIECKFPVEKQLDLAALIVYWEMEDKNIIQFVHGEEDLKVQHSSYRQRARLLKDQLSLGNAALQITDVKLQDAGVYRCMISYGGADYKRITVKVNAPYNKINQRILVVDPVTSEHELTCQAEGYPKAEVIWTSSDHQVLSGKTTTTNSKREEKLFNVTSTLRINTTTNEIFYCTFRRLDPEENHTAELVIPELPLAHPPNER
Assay: blocking of B7-1 binding to human PD-L1, PD-L1 1 ug/ml; competitor B7-1

Row | IC50 [ng/mL] | Binder
3 | 0.826 | B3
4 | 1.38 | B4
5 | 1.65 | B5
6 | 1.23 | B6
7 | 1.69 | B1
8 | 1.45 | B2

Target: T2, human PD-L1 (Cat. #10084-H08H, Sino Biological) (human, UniProt Q9NZQ7 19-239)
T2 construct: Bought recombinant protein used in the Biacore test; also called hPDL1; hPD-L1
T2 sequence (Q9NZQ7 19-239 limits assumed): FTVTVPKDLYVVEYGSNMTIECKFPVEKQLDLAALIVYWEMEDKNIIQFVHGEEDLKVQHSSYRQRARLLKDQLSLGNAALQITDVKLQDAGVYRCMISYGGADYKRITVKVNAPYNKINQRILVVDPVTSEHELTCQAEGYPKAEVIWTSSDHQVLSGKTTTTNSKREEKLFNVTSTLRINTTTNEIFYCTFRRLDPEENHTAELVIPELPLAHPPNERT
Assay: SPR, Biacore X100
Protocol: (§1) According to the method in the manual of human anti-capture kit (Cat. A BR-1008-39, GE), the human anti-capture antibody was covalently coupled to biosensor chip CM5 (Cat. #BR-1000-12, GE) so that a certain amount of human PD-L1 (Cat. #10084-H08H, Sino Biological) monkey PD-L1 (Cat. #90251-C08H, Sino Biological), mouse PD-L1 (Cat. #50010-M08H, Sino Biological) were affinity captured. The affinity of PD-L1 antibody reacting with PD-L1 was measured with Biacore X100, GE instrument.

Row | binding result | Binder
9 | no binding | B7

Target: T3, mouse PD-L1 (Cat. #50010-M08H, Sino Biological) (mouse, UniProt Q9EP73 19-238)
T3 construct: Bought recombinant protein used in the Biacore test
T3 sequence (Q9EP73 19-238 limits assumed, stated change not applied): as the sequence (Q9EP73 19-238 limits assumed) above
Assay: SPR, Biacore X100
Protocol: as §1

Row | binding result | Binder
10 | no binding | B6

Target: T4, monkey PD-L1 (Cat. #90251-C08H, Sino Biological) (monkey (cyno), UniProt G7PSE7 19-239)
T4 construct: Bought recombinant protein used in the Biacore test; also called Monkey (cyno) PD-L1; Cyno PDL1
T4 sequence (G7PSE7 entry or part of it C08H C08H): as the sequence (Q9NZQ7 19-239 limits assumed) above, with A33T, A34S, S62N, R68Q, Q82R, F173L, T185A, T192I, H215L counted along it
Assay: SPR, Biacore X100
Protocol: as §1

Row | binding result | Binder
11 | no binding | B7

Target: T2, human PD-L1 (Cat. #10084-H08H, Sino …)
Assay: SPR, Biacore X100, 1:1 Langmuir
Protocol: as §1

Row | Kd [nM] | koff [s⁻¹] | kon [M⁻¹ s⁻¹] | Binder
12 | 0.0326 | 7.1e-05 | 2.18e+06 | B3
13 | 0.033 | 5.63e-05 | 1.71e+06 | B4
14 | 0.0672 | 0.000116 | 1.73e+06 | B6
15 | 0.227 | 0.000113 | 495000 | B1
16 | 0.203 | 0.000124 | 611000 | B2
17 | 1.39 | 0.000389 | 281000 | B8

Target: T3, mouse PD-L1 (Cat. #50010-M08H, Sino …)
Assay: SPR, Biacore X100, 1:1 Langmuir
Protocol: as §1

Row | Kd [nM] | koff [s⁻¹] | kon [M⁻¹ s⁻¹] | Binder
18 | 18.1 | 0.0119 | 655000 | B1
19 | 69.6 | 0.0564 | 811000 | B2
20 | 135 | 0.0182 | 135000 | B8

Target: T4, monkey PD-L1 (Cat. #90251-C08H, Sino …)
Assay: SPR, Biacore X100, 1:1 Langmuir
Protocol: as §1

Row | Kd [nM] | koff [s⁻¹] | kon [M⁻¹ s⁻¹] | Binder
21 | 0.0458 | 8.38e-05 | 1.83e+06 | B3
22 | 0.048 | 7.68e-05 | 1.6e+06 | B4
23 | 0.062 | 9.38e-05 | 1.51e+06 | B6
24 | 0.318 | 0.000151 | 474000 | B1
25 | 0.211 | 0.000121 | 572000 | B2

Target: T1, human PD-L1 (ligand blocking test)
Assay: blocking of human PD-L1/PD-1 binding, PD-L1 10 ug/ml; competitor PD-1

Row | IC50 [ng/mL] | Binder
26 | 0.215 | B3
27 | 0.228 | B4
28 | 0.338 | B5
29 | 0.242 | B6
30 | 0.29 | B1
31 | 0.168 | B2

Target: T2, human PD-L1 (Cat. #10084-H08H, Sino …)
Assay: SPR, Biacore X100, 1:1 Langmuir
Remark: another data set of the same source
Protocol: as §1

Row | Kd [nM] | koff [s⁻¹] | kon [M⁻¹ s⁻¹] | Binder
32 | 0.11 | 0.000139 | 1.26e+06 | B6

Target: T4, monkey PD-L1 (Cat. #90251-C08H, Sino …)
Assay: SPR, Biacore X100, 1:1 Langmuir
Remark: another data set of the same source
Protocol: as §1

Row | Kd [nM] | koff [s⁻¹] | kon [M⁻¹ s⁻¹] | Binder
33 | 0.114 | 0.000143 | 1.26e+06 | B6
